Earlier results in publication PMC10480133.

Molecular target: GRGDSPK peptide

Integrin αvβ3 (from UniProt P06756)
Kd: 12.2 nM
